The values that follow come from patent US20240269276A1 (HARBOUR BIOMED SHANGHAI, published 2024).

Like-named read-outs stand apart in the source and are kept apart here.

Test [1] concerns the target T1, human CD73 on CHO-K1 cells overexpressing human CD73 (human, UniProt P21589 27-549).
T1 construct: whole, on cells; also called CHO-K1-hCD73
T1 sequence (looked up): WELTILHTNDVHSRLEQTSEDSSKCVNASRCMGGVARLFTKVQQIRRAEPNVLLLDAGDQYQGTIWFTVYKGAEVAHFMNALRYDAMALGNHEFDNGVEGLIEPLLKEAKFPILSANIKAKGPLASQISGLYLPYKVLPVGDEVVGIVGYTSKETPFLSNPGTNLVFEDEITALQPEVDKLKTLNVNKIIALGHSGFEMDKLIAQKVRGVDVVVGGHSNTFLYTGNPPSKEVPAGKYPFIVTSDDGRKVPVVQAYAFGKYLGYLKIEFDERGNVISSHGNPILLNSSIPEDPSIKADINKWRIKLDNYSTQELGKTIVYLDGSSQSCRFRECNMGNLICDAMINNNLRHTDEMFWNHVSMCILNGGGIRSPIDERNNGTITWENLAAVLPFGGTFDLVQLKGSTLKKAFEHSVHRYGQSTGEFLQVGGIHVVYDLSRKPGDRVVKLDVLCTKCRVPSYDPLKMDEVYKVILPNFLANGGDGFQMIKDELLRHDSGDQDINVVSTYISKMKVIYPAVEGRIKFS
The test can be described thus: flow cytometry on CHO-K1 cells overexpressing human CD73 (CHO-K1-hCD73) [continued) C]. As for the experimental part: (§1) In order to investigate the binding activity of the CD73×PD-L1 bispecific antibody to human CD73 and PD-L1, the binding experiment at the cellular level was performed using CHO-K1 cell strains overexpressing human CD73 or PD-L1 (CHO-K1-hCD73 or CHO-K1-hPD-L1). Briefly, the CHO-K1-hCD73 and CHO-K1-hPD-L1 cells were digested and resuspended in an F-12K complete medium, and the cell density was adjusted to 1×10⁶ cells/mL. The cells were seeded in a 96-well V-bottom plate (Corning, #3894) at 100 μL/well, followed by the addition at 100 μL/well and centrifugation at 500 g at 4° C. for 5 min, and then the supernatant was discarded. Antibodies were 3-fold diluted to a maximum final concentration of 50 nM, and a total of 8 concentrations were set. 100 μL of the diluted antibodies was added to the cells, and the cells were incubated away from light at 4° C for 1 h. Thereafter, the cells in each well were rinsed twice with 100 μL of pre-cooled PBS, and centrifuged at 500 g at 4° C. for 5 min, and then the supernatant was discarded. Then 100 μL of a fluorescent secondary antibody (goat anti-human IgG (H+L) secondary antibody, Alexa Fluor® 488 conjugate, Invitrogen, #A11013, diluted at the ratio of 1:1000) was added to each well. […] Finally, the cells in each well were resuspended in 200 μL of pre-cooled PBS, and the fluorescence signal values were read using a BD FACS CANTOII.
In general terms: A flow cytometer gives signals particle by particle.

The target in test [2] is T1, human CD73 on CHO-K1 cells …. Nature of the test: flow cytometry on CHO-K1 cells overexpressing human CD73 (CHO-K1-hCD73). As for the experimental part: In order to investigate the binding activity of the CD73×PD-L1 bispecific antibody to human CD73 and PD-L1, the binding experiment at the cellular level was performed using CHO-K1 cell strains overexpressing human CD73 or PD-L1 (CHO-K1-hCD73 or CHO-K1-hPD-L1). Briefly, the CHO-K1-hCD73 and CHO-K1-hPD-L1 cells were digested and resuspended in an F-12K complete medium, and the cell density was adjusted to 1×10⁶ cells/mL. The cells were seeded in a 96-well V-bottom plate (Corning, #3894) at 100 μL/well, followed by the addition at 100 μL/well and centrifugation at 500 g at 4° C. for 5 min, and then the supernatant was discarded. Antibodies were 3-fold diluted to a maximum final concentration of 50 nM, and a total of 8 concentrations were set. 100 μL of the diluted antibodies was added to the cells, and the cells were incubated away from light at 4° C for 1 h. Thereafter, the cells in each well were rinsed twice with 100 μL of pre-cooled PBS, and centrifuged at 500 g at 4° C. for 5 min, and then the supernatant was discarded. Then 100 μL of a fluorescent secondary antibody (goat anti-human IgG (H+L) secondary antibody, Alexa Fluor® 488 conjugate, Invitrogen, #A11013, diluted at the ratio of 1:1000) was added to each well. The plate was incubated away from light at 4° C. for 30 min. The cells in each well were then rinsed twice with 200 μL of pre-cooled PBS and centrifuged at 500 g at 4° C. for 5 min, and then the supernatant was discarded. Finally, the cells in each well were resuspended in 200 μL of pre-cooled PBS, and the fluorescence signal values were read using a BD FACS CANTOII.

Test [3] has the same target. The test can be described thus: flow cytometry on CHO-K1 cells overexpressing human CD73 (CHO-K1-hCD73) [continued) D]. As for the experimental part:
as §1

In test [4] the target is T2, human PD-L1 protein with histidine tag (ACROBiosystems #PD-1-H5258) (human, UniProt Q9NZQ7 19-238).
T2 construct: Bought protein; also called His PD-L1; human PD-L1 proteins; not shown: histidine tag
The test can be described thus: BLI (Octet Red96e); His-tagged human PD-L1 captured on HIS1K sensor, antibody at 60 nM; 1:1 fit. As for the experimental part:
In this example, affinity determination was performed on the affinity-matured mutants of PR002082 using an Octet Red96e instrument. […] The binding kinetics between the antigen and the antibody was analyzed by the biolayer interferometry (BLI) technique using an Octet molecular interaction analyzer (ForteBio, model: Octet Red96e).
When the affinity of the antigen for the antibody was determined, the rotation speed of the sensor was set at 1000 rpm/min. The 2 HIS1K sensors placed in a column were first equilibrated for 10 min in test buffer, then His PD-L1 was captured with the HIS1K sensor at a capture height of 0.9-1.1 nm, then the HIS1K sensor was equilibrated for 2 min in the test buffer, then the HIS1K sensor was bound to the antigen-binding protein (60 nM and 0 nM) for 3 min, and finally the mixture was dissociated for 15 min. The HIS1K sensor was immersed in a 10 mM glycine solution (pH 1.5) for regeneration to elute the proteins bound to the sensor.
When data analysis was performed using Octet Data Analysis software (Fortebio, version 11.0), the reference signals were subtracted by a single reference mode (reference well), the data were fitted by a “1:1 Local/full fitting” method, and the kinetic parameters of the binding of the antigen to the antibody were calculated to obtain Kₒₙ (1/Ms) values, Kdis (1/s) values and KD (M) values.

Test [5] has as its target T3, human PD-L1 on CHO-K1 cells overexpressing human PD-L1 (human, UniProt Q9NZQ7 19-290).
T3 construct: whole, on cells; also called CHO-K1/hPD-L1; CHO-K1-hPD-L1
Nature of the test: flow cytometry on CHO-K1 cells overexpressing human PD-L1 (CHO-K1/hPD-L1) [continued) D]. How it is done: (§2) In the example, in order to study the in vitro binding activity of the PD-L1 antigen-binding protein to human/cynomolgus monkey PD-L1, cell-level binding experiments were performed using CHO-K1 cell strains overexpressing human PD-L1 (CHO-K1/hPD-L1, GenScript, M00543) or CHO-K1 cell strains overexpressing cynomolgus monkey PD-L1 (CHO-K1/cynoPD-L1, GenScript, M00573). Briefly, the PD-L1 cells were digested and resuspended in an F-12K complete medium, and the cell density was adjusted to 1×10⁶ cells/mL. The cells were seeded in a 96-well V-bottom plate (Corning, 3894) at 100 μL/well, followed by the addition of the test antigen-binding proteins serially diluted 5-fold with concentrations that were twice the final concentrations at 100 μL/well. The mixtures were well mixed. The highest final concentration of the antigen-binding proteins was 100 nM. A total of 8 concentrations were set. An isotype antibody hIgG1 iso was used as a control. The cells were incubated away from light at 4° C. for 1 h. Thereafter, the cells in each well were rinsed twice with 100 μL of pre-cooled PBS, and centrifuged at 500 g at 4° C. for 5 min, and then the supernatant was discarded. Then 100 μL of a fluorescent secondary antibody (goat anti-human IgG (H+L) secondary antibody, Alexa Fluor 488 conjugate, Invitrogen, A11013, diluted at the ratio of 1:1000) was added to each well. The plate was incubated away from light at 4° C. for 30 min. The cells in each well were then rinsed twice with 200 μL of pre-cooled PBS and centrifuged at 500 g at 4° C. for 5 min, and then the supernatant was discarded. Finally, a pre-cooled PBS was added at 200 μL/well to resuspend the cells. Fluorescence signal values were read using a BD FACS CANTOII. Fluorescence signal values were read using a flow cytometer BD FACS CANTOII or FACS ACEA, and the data were processed and analyzed using FlowJo v10 (FlowJo, LLC) software. The data were processed and analyzed by plotting using GraphPad Prism 8 software, and binding curves, EC50 values and other parameters were acquired through four-parameter nonlinear fitting.

The target in test [6] is T4, cynomolgus monkey PD-L1 on CHO-K1 cells overexpressing cynomolgus monkey PD-L1 (cynomolgus monkey, UniProt G7PSE7 19-290).
T4 construct: also called CHO-K1/cynoPD-L1; GenScript M00573
Nature of the test: flow cytometry on CHO-K1 cells overexpressing cynomolgus monkey PD-L1 (CHO-K1/cynoPD-L1). How it is done: as §2

In test [7] the target is T3, human PD-L1 on CHO-K1 cells …. The test can be described thus: flow cytometry on CHO-K1 cells overexpressing human PD-L1 (CHO-K1/hPD-L1) [continued) E]. How it is done:
as §2

In test [8] the target is T4, cynomolgus monkey PD-L1 on CHO-K1 cells …. The test can be described thus: flow cytometry on CHO-K1 cells overexpressing cynomolgus monkey PD-L1 (CHO-K1/cynoPD-L1). As for the experimental part: as §2
This is another data set of the same source.

Test [9] has as its target T3, human PD-L1 on CHO-K1 cells …. Nature of the test: flow cytometry on CHO-K1 cells overexpressing human PD-L1 (CHO-K1/hPD-L1). As for the experimental part:
as §2

Test [10] has the same target. Nature of the test: flow cytometry on CHO-K1 cells overexpressing human PD-L1 (CHO-K1/hPD-L1) [continued) F]. How it is done: as §2
The target is the same in test [11]. The test can be described thus: flow cytometry on CHO-K1 cells overexpressing human PD-L1 (CHO-K1-hPD-L1) [continued) F]. How it is done:
as §1

The target is the same in test [12]. Nature of the test: flow cytometry on CHO-K1 cells overexpressing human PD-L1 (CHO-K1-hPD-L1) [continued) E]. How it is done: as §1

T2 sequence (Q9NZQ7 19-238 limits assumed): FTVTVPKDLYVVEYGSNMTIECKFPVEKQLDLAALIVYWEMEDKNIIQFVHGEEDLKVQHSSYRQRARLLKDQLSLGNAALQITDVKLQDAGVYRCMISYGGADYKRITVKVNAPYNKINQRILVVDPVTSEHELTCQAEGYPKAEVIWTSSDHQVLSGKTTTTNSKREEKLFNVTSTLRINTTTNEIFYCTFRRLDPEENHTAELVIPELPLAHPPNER
T4 sequence (G7PSE7 entry or part of it limits assumed): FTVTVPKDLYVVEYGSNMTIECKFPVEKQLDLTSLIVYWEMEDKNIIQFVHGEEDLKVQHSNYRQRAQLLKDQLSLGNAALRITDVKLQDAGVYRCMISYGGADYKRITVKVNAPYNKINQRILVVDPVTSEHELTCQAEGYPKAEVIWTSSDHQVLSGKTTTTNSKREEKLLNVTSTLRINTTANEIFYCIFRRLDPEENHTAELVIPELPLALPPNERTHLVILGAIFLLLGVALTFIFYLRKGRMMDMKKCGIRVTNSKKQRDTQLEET
T3 sequence (Q9NZQ7 19-290): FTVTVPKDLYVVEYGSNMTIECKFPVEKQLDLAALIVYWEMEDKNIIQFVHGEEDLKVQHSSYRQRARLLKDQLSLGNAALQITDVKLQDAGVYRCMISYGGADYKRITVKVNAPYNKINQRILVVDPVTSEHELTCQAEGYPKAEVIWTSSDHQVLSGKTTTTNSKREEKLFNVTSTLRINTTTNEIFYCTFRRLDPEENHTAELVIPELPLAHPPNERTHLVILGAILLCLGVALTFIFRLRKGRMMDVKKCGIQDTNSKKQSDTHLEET

B1: PR000846 (antibody, human IgG1, kappa, L234A L235A, V domains shown)
VH: QVQLVESGGGVAQPGRSLSLSCAASGFTFSDYGMHWVRQAPGKGLEWVALIWYDASFEYYADSVKGRFSISRDNSKNTLYLQMNSLRAEDTAVYYCVRDAQWGSRLDYWGQGTLVTVSS
VL: KIVMTQSPATLSLSPGERATLSCRASQSVSRYLAWYQQKPGQAPRLLIYDASNRATGIPARFSGSGSGTDFTLTISSLEPEDFAVYYCQQRSNWIFTFGPGTKVDIKR
notes: Anti-CD73 IgG (human IgG1 constant region, human Ig kappa), PTM removed; also called anti-CD73 antibody PR000846; parent monoclonal antibody PR000846
Usually EC50 stands for the concentration giving half of the maximal effect. As to B1, the EC50 in test [1] is 1.73 nM; in test [2], 0.352 nM; in [3] it was 0.737 nM.

B2: PR002082 (antibody, human IgG1, V domains shown)
VH: QVQLVESGGGVVQPGMSLRLSCAASGFTFSSYGMYWVRQAPGKGQEWVAIIWYDGTKKHYADSVKGRFTISRDNSKNTLYLEMNSLRVEDTAVYYCAKNRAIFGVVPDASDIRGQGTMVTVSS
notes: HCAb; also called PTM variant of PR000960 (N28T, N31S)
The term Kd denotes the free concentration of one partner at which half of the binding sites on the other are occupied at equilibrium, for simple one-to-one binding. As usually defined, the koff is the first-order rate constant of dissociation. For orientation: kon means the rate constant with which the complex forms. In turn, B2 returned a Kd in test [4] of 5.61 nM. Besides, in [4], the off-rate constant (koff) was 0.00118 s⁻¹. This molecule also yielded a kon in test [4] of 210000 M⁻¹ s⁻¹. Also, the EC50 in test [5] turned out to be 1.23 nM; in [6] it was 0.386 nM; in test [7], 1.24 nM; in test [8], 1.52 nM; in test [9], 0.86 nM; in test [10], 1.31 nM. For the same molecule, the EC50 in test [11] was 2.93 nM; in test [12], 1.17 nM. Also, the “Maximum MFI” value turned out to be 387000 MFI in test [5]; 381000 MFI in [7]; 12100 MFI in test [8]; 24500 MFI in test [9]; 430000 MFI in test [10].
